Biological target: T1, His-PRL-2 (human, UniProt Q12974 1-167)
T1 construct: human PRL-2 (PTP4A2), 19-kDa construct; also called recombinant PRL-2; 19-kDa PRL-2 construct; source: Escherichia coli BL21, purified
T1 sequence (looked up): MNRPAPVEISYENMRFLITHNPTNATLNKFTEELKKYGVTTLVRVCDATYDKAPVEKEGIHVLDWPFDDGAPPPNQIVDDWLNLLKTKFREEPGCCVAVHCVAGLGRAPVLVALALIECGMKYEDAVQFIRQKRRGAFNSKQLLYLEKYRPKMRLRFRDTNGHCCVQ
Assay: pull-down; in vitro; 20 ng GST-CBS on glutathione-Sepharose beads, equimolar His-PRL-2 (~10 ng), 4 °C 1 h; 150 mM NaCl, 20 mM Tris, 1% Triton-X, 5 mM 2-mercaptoethanol; without inhibitor (control)
Settings: both partners purified

- binding result: binds
B1: GST-CBS (Bateman module of human CNNM3, amino acids 302-452) (domain or fragment, UniProt Q8NE01 302-452, looked up)
chain: SDLSKGVLRCRTVEDVLTPLEDCFMLDASTVLDFGVLASIMQSGHTRIPVYEEERSNIVDMLYLKDLAFVDPEDCTPLSTITRFYNHPLHFVFNDTKLDAVLEEFKRGKSHLAIVQKVNNEGEGDPFYEVLGLVTLEDVIEEIIRSEILDE
notes: human CNNM3, Bateman module, amino acids 302-452; also called GST-2xCBS; CBS tandem domain of CNNM3; source: Escherichia coli BL21, purified

— PMC4865918, “Inhibition of PRL-2·CNNM3 Protein Complex Formation Decreases Breast Cancer Proliferation and Tumor Growth*” (The Journal of Biological Chemistry, 2016)
